Reference: patent publication US20250340640A1 (published 2025)
Where a chain is given by its changes, count along the chain named.

B1: A-H.52 (scFv)
scFv: QVQLVQSGAEVKKPGSSVKVSCKASGYSFTLGYIHWVRQAPGQGLEWMGWFFPGSGNIKYNEKFKGRVTITADTSTSTAYMELSSLRSEDTAVYYCAGSYYSYDVLDYWGQGTTVTVSSGGGGSGGGGSGGGGSGGGGSDIQMTQSPSFLSASVGDRVTITCKASQNVGINVVWHQQKPGKAPKALIYSSSHRYSGVPSRFSGSGSGTEFTLTISSLQPEDFATYFCQQFKSYPLTFGQGTKLEIK
notes: also called phage clone; monovalent scFv
B2: A-H.54 (scFv)
scFv: B1 scFv with T30H, L31N, G32W
notes: Described only as a phage clone; also called phage clone
B3: A-H.53 (scFv)
scFv: B1 scFv with T30R, G32T
notes: as for B2

Target: T1, recombinant protein TCRVB 6-5 (human, captured on a Biotin CAP sensor chip, so presumably biotinylated; the site is not stated)
T1 construct: also called TCRVβ 6-5; TCRβ V6-5*01
T1 TCR beta: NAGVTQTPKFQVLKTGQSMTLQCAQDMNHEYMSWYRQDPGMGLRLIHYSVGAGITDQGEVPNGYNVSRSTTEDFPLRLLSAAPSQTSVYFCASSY
Experiment: SPR, compared with BJM0277
Procedure: (§1) TCRVB 6-5 at 5 μg/mL was immobilized on a Biotin CAP Series S Sensor Chip to 60 RU. A-H.52 was diluted to 50 nM and then serially diluted two fold. Association was 120 seconds, dissociation was 300 seconds. This assay was run in 1×HBS-EP+ Buffer pH 7.4 and 25C. The data was fit using a 1:1 binding model. A-H.52 is a phage clones and is a monovalent scFv. A-H.52 has two mutations on CDRH1.
(§2) TCRVB 6-5 at 5 ug/mL was immobilized on a Biotin CAP Series S Sensor Chip to 60 RU. A-H.53 was diluted to 50 nM and then serially diluted two fold. Association was 120 seconds, dissociation was 300 seconds. This assay was run in 1×HBS-EP+ Buffer pH 7.4 and 25C. The data was fit using a 1:1 binding model. A-H.53 (phage clone) affinity is in the pM range (Table 16).
as §1, with “A-H.54” for “A-H.52”, “model.” for “model. A-H.52 is a phage clones and is a monovalent scFv. A-H.52 has two mutations on CDRH1.”
With B1 the “fold greater affinity than BJM0277” value was 20 fold. In the case of B2, the “fold greater affinity than BJM0277” value is reported as 17 fold. In the case of B3, the “fold greater affinity than BJM0277” value is reported as 200 fold.

Target: T1, recombinant protein TCRVB 6-5
Experiment: SPR, TCRVB 6-5 captured on Biotin CAP Series S chip, 1:1 model, 25C
Procedure: as §1, §2
as §1, with “A-H.54” for “A-H.52”, “model.” for “model. A-H.52 is a phage clones and is a monovalent scFv. A-H.52 has two mutations on CDRH1.”
B1 gave a Kd of 1.76 nM. B2 showed a Kd of 2.22 nM. In the case of B3, the Kd is reported as 0.165 nM.
